What was measured:
[1] = molecular target: Cytosolic domain of YscV (YscVC, residues 356-704), co-expressed with YscX and YscY (Yersinia enterocolitica); test: SEC
[2] = molecular target: Cytosolic domain of YscV (YscVC, residues 356-704), co-expressed with YscX and YscY (Yersinia enterocolitica); test: crystal structure
[3] = molecular target: Cytosolic domain of YscV (YscVC, residues 356-704), purified alone (Yersinia enterocolitica); test: SEC; analytical SEC of YscVC alone at 10, 25 and 100 µM initial concentration, Superdex 200 10/300GL, 20 mM Tris pH 8, 150 mM NaCl; monomer to nonamer

Row | Substance | stoichiometry N [1] | stoichiometry N [2] | stoichiometry N [3]
1 | Cytosolic domain of YscV (YscVC, residues 356-704), co-expressed with YscX and YscY (domain or fragment) | 9 | 9 | 
2 | Cytosolic domain of YscV (YscVC, residues 356-704), purified alone (domain or fragment) |  |  | 9
